Assay results reported in article PMC9482650, “Quantitative fragmentomics allow affinity mapping of interactomes” (Nature Communications, 2022).

T1: APBA2_1, Q99767
T1 sequence (Q99767 563-664, limits assumed, looked up): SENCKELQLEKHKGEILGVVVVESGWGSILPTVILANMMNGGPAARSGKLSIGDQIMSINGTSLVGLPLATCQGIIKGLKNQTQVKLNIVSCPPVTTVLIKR

T2: DLG3_1, Q92796
T2 sequence (Q92796 125-227, limits assumed, looked up): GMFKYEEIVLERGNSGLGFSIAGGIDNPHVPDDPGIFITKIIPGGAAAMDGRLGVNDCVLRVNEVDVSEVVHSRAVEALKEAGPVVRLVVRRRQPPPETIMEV

T3: DLG3_2, Q92796
T3 sequence (Q92796 221-321, limits assumed, looked up): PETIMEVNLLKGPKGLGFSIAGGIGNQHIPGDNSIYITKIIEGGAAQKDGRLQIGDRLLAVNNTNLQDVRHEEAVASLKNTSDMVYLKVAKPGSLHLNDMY

T4: LIN7A, O14910
T4 sequence (O14910 103-200, limits assumed, looked up): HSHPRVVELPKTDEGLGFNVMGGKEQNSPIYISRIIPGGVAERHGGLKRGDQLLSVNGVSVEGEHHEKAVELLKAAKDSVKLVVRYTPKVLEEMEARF

T5: LIN7B, Q9HAP6
T5 sequence (Q9HAP6 88-185, limits assumed, looked up): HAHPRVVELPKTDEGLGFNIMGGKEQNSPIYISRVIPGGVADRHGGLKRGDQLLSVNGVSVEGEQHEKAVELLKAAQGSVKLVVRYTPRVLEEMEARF

T6: PDZRN3_1, Q9UPQ7
T6 sequence (Q9UPQ7 244-349, limits assumed, looked up): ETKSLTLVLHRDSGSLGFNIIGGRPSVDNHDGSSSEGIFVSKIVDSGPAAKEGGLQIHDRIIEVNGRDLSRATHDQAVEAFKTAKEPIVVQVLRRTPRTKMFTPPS

T7: RADIL, Q96JH8
T7 sequence (Q96JH8 971-1071, limits assumed, looked up): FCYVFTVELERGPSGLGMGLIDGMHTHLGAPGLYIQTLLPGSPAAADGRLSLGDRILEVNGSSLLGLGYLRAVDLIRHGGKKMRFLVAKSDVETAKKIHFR

T8: SNTA1, Q13424
T8 sequence (Q13424 82-180, limits assumed, looked up): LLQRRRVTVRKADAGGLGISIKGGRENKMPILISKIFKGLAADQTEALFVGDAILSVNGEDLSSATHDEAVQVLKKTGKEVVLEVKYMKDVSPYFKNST

T9: SNTG1, Q9NSN8
T9 sequence (Q9NSN8 52-150, limits assumed, looked up): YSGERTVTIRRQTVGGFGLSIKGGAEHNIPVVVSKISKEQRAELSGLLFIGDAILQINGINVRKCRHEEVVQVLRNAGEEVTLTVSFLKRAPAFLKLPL

T10: SNTG2, Q9NY99
T10 sequence (Q9NY99 68-166, limits assumed, looked up): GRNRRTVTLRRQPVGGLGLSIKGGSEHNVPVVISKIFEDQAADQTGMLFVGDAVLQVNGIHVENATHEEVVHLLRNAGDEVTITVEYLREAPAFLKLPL

T11: TIAM2, Q8IVF5
T11 sequence (Q8IVF5 885-986, limits assumed, looked up): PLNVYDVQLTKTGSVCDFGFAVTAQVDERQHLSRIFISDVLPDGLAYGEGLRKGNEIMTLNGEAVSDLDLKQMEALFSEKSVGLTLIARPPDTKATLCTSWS

T12: TX1BP3, O14907
T12 sequence (O14907 10-122, limits assumed, looked up): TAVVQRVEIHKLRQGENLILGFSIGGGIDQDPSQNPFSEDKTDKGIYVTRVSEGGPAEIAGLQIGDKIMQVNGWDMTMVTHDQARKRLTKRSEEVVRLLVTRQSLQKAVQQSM


Columns and labels:
Assay in all cases: holdup assay
Design in all cases: key: below the threshold = too weak to quantify, mostly under pKd 3.1 to 4
Details in all cases: plain residues with an end cap or a label only (N-terminal biotin on a linker: ado-ado)
APBA2_1, Q99767 = target: T1, APBA2_1, Q99767
ARHGEF12, Q9NZN5-2 = target: ARHGEF12, Q9NZN5-2
ARHGEF12, Q9NZN5-2, sequence (Q9NZN5 other isoform, or with tags, fused parts or gaps): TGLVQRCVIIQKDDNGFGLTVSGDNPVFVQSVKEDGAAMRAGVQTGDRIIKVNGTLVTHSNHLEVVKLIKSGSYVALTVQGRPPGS

CASK, O14936 = target: CASK, O14936
CASK, O14936, sequence (O14936 487-570): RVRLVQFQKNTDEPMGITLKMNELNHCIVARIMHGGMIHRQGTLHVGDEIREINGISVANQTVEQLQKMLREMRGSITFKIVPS

DLG3_1, Q92796 = target: T2, DLG3_1, Q92796
DLG3_2, Q92796 = target: T3, DLG3_2, Q92796
DLG5_1, Q8TDM6 = target: DLG5_1, Q8TDM6
DLG5_1, Q8TDM6, sequence (Q8TDM6 617-713): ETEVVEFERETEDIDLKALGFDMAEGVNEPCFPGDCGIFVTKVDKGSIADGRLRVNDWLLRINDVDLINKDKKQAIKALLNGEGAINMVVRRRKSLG

FRMPD4, Q14CM0 = target: FRMPD4, Q14CM0
FRMPD4, Q14CM0, sequence (Q14CM0 67-160): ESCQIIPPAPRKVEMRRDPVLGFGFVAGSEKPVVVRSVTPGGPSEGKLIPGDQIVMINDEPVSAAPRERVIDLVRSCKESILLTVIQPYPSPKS

GORASP2, Q9H8Y8 = target: GORASP2, Q9H8Y8
GRID2IP_2, A4D2P6 = target: GRID2IP_2, A4D2P6
GRID2IP_2, A4D2P6, sequence (A4D2P6 272-370): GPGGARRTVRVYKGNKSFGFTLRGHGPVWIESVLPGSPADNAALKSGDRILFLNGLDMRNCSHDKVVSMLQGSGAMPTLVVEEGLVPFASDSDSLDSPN

Inadl_1, Q8NI35 = target: Inadl_1, Q8NI35
Inadl_1, Q8NI35, sequence (Q8NI35 113-229): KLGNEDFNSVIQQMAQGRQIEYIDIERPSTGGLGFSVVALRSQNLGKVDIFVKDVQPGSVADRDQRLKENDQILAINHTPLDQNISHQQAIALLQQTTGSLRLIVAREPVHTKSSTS

LIN7A, O14910 = target: T4, LIN7A, O14910
LIN7B, Q9HAP6 = target: T5, LIN7B, Q9HAP6
MAGI1_1, Q96QZ7 = target: MAGI1_1, Q96QZ7
MAGI1_1, Q96QZ7, sequence (Q96QZ7 1-106): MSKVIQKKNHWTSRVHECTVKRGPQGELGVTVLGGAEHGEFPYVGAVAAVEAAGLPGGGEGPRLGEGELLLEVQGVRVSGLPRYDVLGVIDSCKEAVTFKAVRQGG

MAST2, Q6P0Q8 = target: MAST2, Q6P0Q8
MAST2, Q6P0Q8, sequence (Q6P0Q8 1099-1202): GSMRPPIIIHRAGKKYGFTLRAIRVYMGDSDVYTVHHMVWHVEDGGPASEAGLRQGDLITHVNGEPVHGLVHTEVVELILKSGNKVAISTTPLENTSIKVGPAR

NHERF4_2, Q86UT5 = target: NHERF4_2, Q86UT5
NHERF4_2, Q86UT5, sequence (Q86UT5 220-308): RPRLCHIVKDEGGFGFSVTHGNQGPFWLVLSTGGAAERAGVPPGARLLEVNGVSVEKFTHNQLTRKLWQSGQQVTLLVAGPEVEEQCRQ

PDZRN3_1, Q9UPQ7 = target: T6, PDZRN3_1, Q9UPQ7
PICK1, Q9NRD5 = target: PICK1, Q9NRD5
PICK1, Q9NRD5, sequence (Q9NRD5 17-115): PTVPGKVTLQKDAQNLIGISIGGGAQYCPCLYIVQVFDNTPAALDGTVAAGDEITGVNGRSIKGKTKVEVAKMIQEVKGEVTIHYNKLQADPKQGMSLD

RADIL, Q96JH8 = target: T7, RADIL, Q96JH8
SNTA1, Q13424 = target: T8, SNTA1, Q13424
SNTG1, Q9NSN8 = target: T9, SNTG1, Q9NSN8
SNTG2, Q9NY99 = target: T10, SNTG2, Q9NY99
TIAM2, Q8IVF5 = target: T11, TIAM2, Q8IVF5
TJP1_2, Q07157 = target: TJP1_2, Q07157
TJP1_2, Q07157, sequence (Q07157 181-274): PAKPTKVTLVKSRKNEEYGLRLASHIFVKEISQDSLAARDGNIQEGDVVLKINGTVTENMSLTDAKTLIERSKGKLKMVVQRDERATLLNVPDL

TX1BP3, O14907 = target: T12, TX1BP3, O14907

Binder	pKd (APBA2_1, Q99767)	pKd (ARHGEF12, Q9NZN5-2)	pKd (CASK, O14936)	pKd (DLG3_2, Q92796)	pKd (DLG5_1, Q8TDM6)	pKd (FRMPD4, Q14CM0)	pKd (GORASP2, Q9H8Y8)	pKd (GRID2IP_2, A4D2P6)	pKd (Inadl_1, Q8NI35)	pKd (LIN7A, O14910)	pKd (LIN7B, Q9HAP6)	pKd (MAGI1_1, Q96QZ7)	pKd (MAST2, Q6P0Q8)	pKd (NHERF4_2, Q86UT5)	pKd (PICK1, Q9NRD5)	pKd (RADIL, Q96JH8)	pKd (SNTA1, Q13424)	pKd (SNTG1, Q9NSN8)	pKd (TIAM2, Q8IVF5)	pKd (TX1BP3, O14907)	further results
DRIQSCLSDA [SBF1, O95248]	below the threshold	below the threshold	below the threshold	4.19	below the threshold	below the threshold	below the threshold	below the threshold	below the threshold	below the threshold	3.72	below the threshold	4.35	below the threshold	below the threshold	below the threshold	below the threshold	below the threshold	4.03	4.04	pKd (DLG3_1, Q92796): below the threshold; pKd (PDZRN3_1, Q9UPQ7): below the threshold; pKd (SNTG2, Q9NY99): below the threshold; pKd (TJP1_2, Q07157): below the threshold
KSRVAFFEEL [NF2, P35240;P35240-1]		3.91	below the threshold	below the threshold	below the threshold	4.17			below the threshold		below the threshold	below the threshold	4.97		below the threshold	4.44	below the threshold	below the threshold	below the threshold	4.34	
PSVGSKKTVL [REELD1, A0A1B0GV85]	below the threshold	5.05	below the threshold	below the threshold	below the threshold	3.53	below the threshold	4.75	below the threshold	below the threshold	below the threshold	below the threshold	5.05	below the threshold	below the threshold	below the threshold	3.73	below the threshold	below the threshold	below the threshold	pKd (DLG3_1, Q92796): below the threshold; pKd (PDZRN3_1, Q9UPQ7): 3.48; pKd (SNTG2, Q9NY99): 3.66; pKd (TJP1_2, Q07157): below the threshold
DTKNYKQTSV [CRIPT, Q9P021]	below the threshold	4.36	below the threshold	4.61	below the threshold	below the threshold	below the threshold	4.39	below the threshold	3.56	below the threshold	below the threshold	5.35	below the threshold	4.15	below the threshold	4.74	4.12	below the threshold	5.4	pKd (DLG3_1, Q92796): 3.69; pKd (PDZRN3_1, Q9UPQ7): 4.12; pKd (SNTG2, Q9NY99): 4.37; pKd (TJP1_2, Q07157): below the threshold
IDESKKEWLI [CNTNAP2, Q9UHC6]	below the threshold	below the threshold	below the threshold	3.91	below the threshold	below the threshold	3.94	below the threshold	3.93	3.72	3.75	below the threshold	below the threshold	below the threshold	4.19	3.76	below the threshold	below the threshold	3.81	below the threshold	pKd (DLG3_1, Q92796): below the threshold; pKd (PDZRN3_1, Q9UPQ7): below the threshold; pKd (SNTG2, Q9NY99): below the threshold; pKd (TJP1_2, Q07157): 3.5
SRSVVESDEL [MYPN, Q86TC9]	below the threshold	3.58	below the threshold	below the threshold	below the threshold	3.72	below the threshold	below the threshold	below the threshold	below the threshold	below the threshold	3.53	4.46	below the threshold	below the threshold	below the threshold	3.6	below the threshold	below the threshold	below the threshold	pKd (DLG3_1, Q92796): below the threshold; pKd (PDZRN3_1, Q9UPQ7): below the threshold; pKd (SNTG2, Q9NY99): below the threshold; pKd (TJP1_2, Q07157): 3.51
KRPEMTSSSV [MUC3A, MUC3B, Q02505;Q9H195]	below the threshold			4.26		below the threshold	below the threshold	3.73	below the threshold	below the threshold	3.68	below the threshold	4.77	below the threshold		below the threshold	1.76	4.08	1.96		
